# Measured values taken from patent CN1934266A (LILLY CO ELI, dated 2007).
# Numbering of substitutions follows the chain as printed.
# T1: BMP-5 (R&D Systems 615-BM) (UniProt P22003 317-454, limits assumed)
# T1 sequence (looked up): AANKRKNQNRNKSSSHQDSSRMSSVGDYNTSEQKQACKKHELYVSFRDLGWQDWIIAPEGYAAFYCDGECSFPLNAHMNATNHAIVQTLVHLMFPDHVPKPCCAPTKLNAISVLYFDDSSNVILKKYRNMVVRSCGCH
# T2: BMP-6 (R&D Systems 507-BP) (UniProt P22004 382-513, limits assumed)
# T2 sequence (looked up): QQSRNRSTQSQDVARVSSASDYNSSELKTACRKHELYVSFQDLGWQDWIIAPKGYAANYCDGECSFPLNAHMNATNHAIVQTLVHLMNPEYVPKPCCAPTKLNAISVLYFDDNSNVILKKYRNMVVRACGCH
# T3: 激活蛋白A (R&D Systems 338-AC) (UniProt P08476 311-426)
# T3 construct: also called activin A
# T3 sequence (looked up): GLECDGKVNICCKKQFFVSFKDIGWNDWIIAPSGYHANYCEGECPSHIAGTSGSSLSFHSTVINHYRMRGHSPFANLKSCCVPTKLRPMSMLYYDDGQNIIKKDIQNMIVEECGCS
# T4: 激活蛋白B (R&D Systems 659-AB) (UniProt P09529 293-407)
# T4 construct: also called activin B
# T4 sequence (looked up): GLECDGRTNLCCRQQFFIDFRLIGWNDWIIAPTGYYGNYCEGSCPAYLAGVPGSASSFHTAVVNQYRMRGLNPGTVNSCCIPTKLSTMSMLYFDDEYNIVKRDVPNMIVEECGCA
# T5: 重组人GDF-11(Peprotech公司，目录号120-11) (human, UniProt O95390 299-407)
# T5 sequence (looked up): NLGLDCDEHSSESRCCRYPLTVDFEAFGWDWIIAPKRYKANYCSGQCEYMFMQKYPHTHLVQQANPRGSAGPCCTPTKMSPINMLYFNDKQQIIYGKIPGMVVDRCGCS
# T6: BMP-7 (R&D Systems 354-BP) (UniProt P18075 293-431)
# T6 sequence (looked up): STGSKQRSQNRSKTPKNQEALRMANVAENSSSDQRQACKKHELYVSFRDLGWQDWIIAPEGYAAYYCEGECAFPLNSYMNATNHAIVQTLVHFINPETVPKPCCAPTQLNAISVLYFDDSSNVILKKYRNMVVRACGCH
# T7: TGF-b2 (Peprotech 100-35) (UniProt P61812 303-414)
# T7 construct: also called TGF-β2
# T7 sequence (looked up): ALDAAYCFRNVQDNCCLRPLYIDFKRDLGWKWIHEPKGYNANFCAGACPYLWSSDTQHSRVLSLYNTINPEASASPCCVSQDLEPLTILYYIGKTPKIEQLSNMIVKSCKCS
# B1: 抗肌肉生长抑素Fab 3 (Fab, V domains shown)
# VH: QVTLKESGPGILQSSQTLSLTCSLSGFSLRTSGMSVSWIRQSSGKGLEWLAHIYWDDDKRYNPSLRNRLTISKDTLRNQVFLKITSVGTADTATYYCARRAITTVIGGGTMDYWGQGTSVTVSS
# VL: QIVLTQSPAIMSASPGEKVTMTCSASSSISYMHWYQQKPGTSPKRWIYDTSKLASGVPARFSGSGSGTSYSLTISSMEAEDAATYYCQQWYSNPLTFGAGTKLELKR
# B2: 抗肌肉生长抑素Fab 5 (Fab, V domains shown)
# VH: B1 VH with L24F, R30S, N67S, L76S, G88D, A101G, I106L
# VL: B1 VL with I2V, P15L, I29V, S30H, P39S, Y91S
# B3: 抗肌肉生长抑素Fab 7 (Fab, V domains shown)
# VH: QVTLKSGPGILQSSQTLTLTCSLSGFSLTTSGMIVSWIRQSSGRGLEWLAHIYWDDDKRYNPSLRNRLTISKDTLRNQVFLWISSVGTADTATYYCARRAITTVIGGGTMDYWGQGTSVTVSS
# VL: B1 VL
# Molecular target: T1, BMP-5 (R&D Systems 615-BM)
# Assay: ELISA, growth factor coated at 10 μg/ml, antibody at 10 μg/ml, mean of duplicates
row,Binder,平均吸光度 (OD 490 nm)
1,B1,0.034
2,B2,0.033
3,B3,0.0345

# Molecular target: IGF-1 (R&D Systems 291-G1) (UniProt P05019 49-118)
# Assay: as above
# IGF-1 (R&D Systems 291-G1), sequence (P05019 49-118 limits assumed): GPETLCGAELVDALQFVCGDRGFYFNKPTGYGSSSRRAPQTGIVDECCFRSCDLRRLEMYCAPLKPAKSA
row,Binder,平均吸光度 (OD 490 nm)
1,B1,0.034
2,B2,0.035
3,B3,0.034

# Molecular target: T2, BMP-6 (R&D Systems 507-BP)
# Assay: as above
row,Binder,平均吸光度 (OD 490 nm)
1,B1,0.0335
2,B2,0.0325
3,B3,0.035

# Molecular target: T3, 激活蛋白A (R&D Systems 338-AC)
# Assay: as above
row,Binder,平均吸光度 (OD 490 nm)
1,B1,0.033
2,B2,0.033
3,B3,0.0325

# Molecular target: BMP-2 (R&D Systems 355-BEC/CF) (UniProt P12643 283-396)
# Assay: as above
# BMP-2 (R&D Systems 355-BEC/CF), sequence (P12643 283-396 limits assumed): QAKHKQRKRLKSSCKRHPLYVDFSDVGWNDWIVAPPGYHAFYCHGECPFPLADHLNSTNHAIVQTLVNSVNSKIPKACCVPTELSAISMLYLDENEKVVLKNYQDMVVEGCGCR
row,Binder,平均吸光度 (OD 490 nm)
1,B1,0.0345
2,B2,0.032
3,B3,0.0335

# Molecular target: T8, TGF-b1 (Peprotech 100-21R) (UniProt P01137 279-390)
# T8 construct: also called TGF-β1
# Assay: as above
# T8 sequence (P01137 279-390 limits assumed): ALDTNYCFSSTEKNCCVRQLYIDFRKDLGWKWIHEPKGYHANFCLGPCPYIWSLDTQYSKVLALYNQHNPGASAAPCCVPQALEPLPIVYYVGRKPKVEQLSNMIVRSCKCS
row,Binder,平均吸光度 (OD 490 nm)
1,B1,0.034
2,B2,0.0325
3,B3,0.032

# Molecular target: T4, 激活蛋白B (R&D Systems 659-AB)
# Assay: as above
row,Binder,平均吸光度 (OD 490 nm)
1,B1,0.032
2,B2,0.033
3,B3,0.031

# Molecular target: T5, 重组人GDF-11(Peprotech公司，目录号120-11)
# Assay: as above
row,Binder,平均吸光度 (OD 490 nm)
1,B1,0.0705
2,B2,0.034
3,B3,0.04

# Molecular target: T9, TGF-a (R&D Systems 239-A) (UniProt P01135 40-89)
# T9 construct: also called TGF-α
# Assay: as above
# T9 sequence (P01135 40-89 limits assumed): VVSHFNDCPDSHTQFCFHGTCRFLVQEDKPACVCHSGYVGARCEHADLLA
row,Binder,平均吸光度 (OD 490 nm)
1,B1,0.033
2,B2,0.033
3,B3,0.0315

# Molecular target: T6, BMP-7 (R&D Systems 354-BP)
# Assay: as above
row,Binder,平均吸光度 (OD 490 nm)
1,B1,0.033
2,B2,0.032
3,B3,0.031

# Molecular target: T7, TGF-b2 (Peprotech 100-35)
# Assay: as above
row,Binder,平均吸光度 (OD 490 nm)
1,B1,0.034
2,B2,0.034
3,B3,0.0345
